Data: the Human Domainome abundance scans (Beltran et al. 2025)
± gives the uncertainty stated by the source.

B1: Triacylglycerol hydrolase DDHD2, residues 389 to 447; numbered along this chain, O94830 (parent)
chain: TLEEDLKKLQLSEFFDIFEKEKVDKEALALCTDRDLQEIGIPLGPRKKILNYFSTRKNS

Variants of: B1
Experiment: abundance fitness (aPCA) (normalised: wild type 0, dead -1); higher = more abundant; growth selection in yeast, the domain comes from the species named
Details: Homo sapiens

| Variant | abundance fitness |
| --- | --- |
| TLEEDLKKLQLSEFFDIFEKEKVDKEALALCTDRDLQSIGIPLGPRKKILNYFSTRKNS [E38S] | -0.369 ± 0.07 |
| TLEEDLKKLQLSEFFDIFEKEKVDKEALALCTDRDLQMIGIPLGPRKKILNYFSTRKNS [E38M] | 0.033 ± 0.097 |
| TLEEDLKKLQLSEFFDIFEKEKVDKEALALCTDRDLQAIGIPLGPRKKILNYFSTRKNS [E38A] | 0.181 ± 0.077 |
| TLEEDLKKLQLSEFFDIFEKEKVDKEALALCTDRDLQDIGIPLGPRKKILNYFSTRKNS [E38D] | 0.067 ± 0.077 |
| TLEEDLKKLQLSEFFDIFEKEKVDKEALALCTDRDLQIIGIPLGPRKKILNYFSTRKNS [E38I] | -0.294 ± 0.11 |
| TLEEDLKKLQLSEFFDIFEKEKVDKEALALCTDRDLQHIGIPLGPRKKILNYFSTRKNS [E38H] | -0.302 ± 0.1 |
| TLEEDLKKLQLSEFFDIFEKEKVDKEALALCTDRDLQCIGIPLGPRKKILNYFSTRKNS [E38C] | -0.129 ± 0.08 |
| TLEEDLKKLQLSEFFDIFEKEKVDKEALALCTDRDLQKIGIPLGPRKKILNYFSTRKNS [E38K] | 0.299 ± 0.094 |
| TLEEDLKKLQLSEFFDIFEKEKVDKEALALCTDRDLQYIGIPLGPRKKILNYFSTRKNS [E38Y] | -0.55 ± 0.11 |
| TLEEDLKKLQLSEFFDIFEKEKVDKEALALCTDRDLQFIGIPLGPRKKILNYFSTRKNS [E38F] | -0.468 ± 0.093 |
| TLEEDLKKLQLSEFFDIFEKEKVDKEALALCTDRDLQGIGIPLGPRKKILNYFSTRKNS [E38G] | -0.319 ± 0.074 |
| TLEEDLKKLQLSEFFDIFEKEKVDKEALALCTDRDLQQIGIPLGPRKKILNYFSTRKNS [E38Q] | -0.161 ± 0.13 |
| TLEEDLKKLQLSEFFDIFEKEKVDKEALALCTDRDLQTIGIPLGPRKKILNYFSTRKNS [E38T] | -0.051 ± 0.083 |
| TLEEDLKKLQLSEFFDIFEKEKVDKEALALCTDRDLQVIGIPLGPRKKILNYFSTRKNS [E38V] | -0.036 ± 0.065 |
| TLEEDLKKLQLSEFFDIFEKEKVDKEALALCTDRDLQPIGIPLGPRKKILNYFSTRKNS [E38P] | -0.888 ± 0.15 |
| TLEEDLKKLQLSEFFDIFEKEKVDKEALALCTDRDLSEIGIPLGPRKKILNYFSTRKNS [Q37S] | -0.178 ± 0.07 |
| TLEEDLKKLQLSEFFDIFEKEKVDKEALALCTDRDLREIGIPLGPRKKILNYFSTRKNS [Q37R] | -0.302 ± 0.073 |
| TLEEDLKKLQLSEFFDIFEKEKVDKEALALCTDRDLGEIGIPLGPRKKILNYFSTRKNS [Q37G] | 0.049 ± 0.064 |
| TLEEDLKKLQLSEFFDIFEKEKVDKEALALCTDRDLIEIGIPLGPRKKILNYFSTRKNS [Q37I] | 0.086 ± 0.1 |
| TLEEDLKKLQLSEFFDIFEKEKVDKEALALCTDRDLYEIGIPLGPRKKILNYFSTRKNS [Q37Y] | -0.232 ± 0.13 |
| TLEEDLKKLQLSEFFDIFEKEKVDKEALALCTDRDLHEIGIPLGPRKKILNYFSTRKNS [Q37H] | -0.229 ± 0.14 |
| TLEEDLKKLQLSEFFDIFEKEKVDKEALALCTDRDLFEIGIPLGPRKKILNYFSTRKNS [Q37F] | -0.01 ± 0.12 |
| TLEEDLKKLQLSEFFDIFEKEKVDKEALALCTDRDLMEIGIPLGPRKKILNYFSTRKNS [Q37M] | -0.024 ± 0.087 |

| Variant | abundance fitness |
| --- | --- |
| TLEEDLKKLQLSEFFDIFEKEKVDKEALALCTDRDLLEIGIPLGPRKKILNYFSTRKNS [Q37L] | -0.343 ± 0.074 |
| TLEEDLKKLQLSEFFDIFEKEKVDKEALALCTDRDLPEIGIPLGPRKKILNYFSTRKNS [Q37P] | -0.996 ± 0.16 |
| TLEEDLKKLQLSEFFDIFEKEKVDKEALALCTDRDLNEIGIPLGPRKKILNYFSTRKNS [Q37N] | -0.305 ± 0.14 |
| TLEEDLKKLQLSEFFDIFEKEKVDKEALALCTDRDLWEIGIPLGPRKKILNYFSTRKNS [Q37W] | -0.37 ± 0.098 |
| TLEEDLKKLQLSEFFDIFEKEKVDKEALALCTDRDLTEIGIPLGPRKKILNYFSTRKNS [Q37T] | -0.129 ± 0.089 |
| TLEEDLKKLQLSEFFDIFEKEKVDKEALALCTDRDLEEIGIPLGPRKKILNYFSTRKNS [Q37E] | 0.241 ± 0.097 |
| TLEEDLKKLQLSEFFDIFEKEKVDKEALALCTDRDLVEIGIPLGPRKKILNYFSTRKNS [Q37V] | -0.048 ± 0.067 |
| TLEEDLKKLQLSEFFDIFEKEKVDKEALALCTDRDLQEGGIPLGPRKKILNYFSTRKNS [I39G] | -0.261 ± 0.079 |
| TLEEDLKKLQLSEFFDIFEKEKVDKEALALCTDRDLQECGIPLGPRKKILNYFSTRKNS [I39C] | -0.411 ± 0.12 |
| TLEEDLKKLQLSEFFDIFEKEKVDKEALALCTDRDLQEKGIPLGPRKKILNYFSTRKNS [I39K] | 0.196 ± 0.087 |
| TLEEDLKKLQLSEFFDIFEKEKVDKEALALCTDRDLQEDGIPLGPRKKILNYFSTRKNS [I39D] | -0.3 ± 0.12 |
| TLEEDLKKLQLSEFFDIFEKEKVDKEALALCTDRDLQEFGIPLGPRKKILNYFSTRKNS [I39F] | 0.448 ± 0.12 |
| TLEEDLKKLQLSEFFDIFEKEKVDKEALALCTDRDLQELGIPLGPRKKILNYFSTRKNS [I39L] | 0.176 ± 0.064 |
| TLEEDLKKLQLSEFFDIFEKEKVDKEALALCTDRDLQEHGIPLGPRKKILNYFSTRKNS [I39H] | -0.341 ± 0.19 |
| TLEEDLKKLQLSEFFDIFEKEKVDKEALALCTDRDLQEMGIPLGPRKKILNYFSTRKNS [I39M] | 0.764 ± 0.072 |
| TLEEDLKKLQLSEFFDIFEKEKVDKEALALCTDRDLQEAGIPLGPRKKILNYFSTRKNS [I39A] | -0.204 ± 0.074 |
| TLEEDLKKLQLSEFFDIFEKEKVDKEALALCTDRDSQEIGIPLGPRKKILNYFSTRKNS [L36S] | -0.293 ± 0.07 |
| TLEEDLKKLQLSEFFDIFEKEKVDKEALALCTDRDTQEIGIPLGPRKKILNYFSTRKNS [L36T] | -0.298 ± 0.093 |
| TLEEDLKKLQLSEFFDIFEKEKVDKEALALCTDRDYQEIGIPLGPRKKILNYFSTRKNS [L36Y] | -0.765 ± 0.14 |
| TLEEDLKKLQLSEFFDIFEKEKVDKEALALCTDRDQQEIGIPLGPRKKILNYFSTRKNS [L36Q] | -0.448 ± 0.12 |
| TLEEDLKKLQLSEFFDIFEKEKVDKEALALCTDRDRQEIGIPLGPRKKILNYFSTRKNS [L36R] | -0.434 ± 0.072 |
| TLEEDLKKLQLSEFFDIFEKEKVDKEALALCTDRDVQEIGIPLGPRKKILNYFSTRKNS [L36V] | -0.567 ± 0.073 |
